# Experimental data: US9623039B2, “Treatment and prevention of pathological conditions using iduna related techniques and compositions” (VALTED, LLC, priority 2010, dated 2017)
# B1: Iduna: novel NMDA-induced cell survival protein, PAR-dependent E3 ligase; 359 amino acids (protein)
# chain: MEMAGCGEIDHSINMLPTNKKANESCSNTAPSLTVPECAICLQTCVHPVSLPCKHVFCYLCVKGASWLGKRCALCRQEIPEDFLDKPTLLSPEELKAASRGNGEYAWYYEGRNGWWQYDERTSRELEDAFSKGKKNTEMLIAGFLYVADLENMVQYRRNEHGRRRKIKRDIIDIPKKGVAGLRLDCDTNTVNLARESSADGADSGSAQTGASVQLAVPSSTRPLTSVDGQLTSPVTPSPDAGISLEDSFAHLQLSGDSIAERSHRGEGEEDHESPSSGRVPDTSVEETESDASSDSEDAPVVVAQHSLTQQRPLVPNGNQTVADQSDRSGTDRSVAGGGTMSVNVRSRRPDGQCTVIEV
# Tests used:
# cortical neurons = assay: MNNG-induced cell death in cortical neurons; type: cell-based, mouse; settings: MNNG 50 μM for 15 min
# Experimental: Primary Neuronal Culture Preparation: Primary cortical cell cultures were prepared from gestational day 15 mouse embryos as previously described. Experiments were performed at DIV (day in vitro) 14. Under these conditions, neurons represent 90% of the cells in the culture. Mature neurons were washed with control salt solution (CSS) containing 120 mM NaCl, 5.4 mM KCl, 1.8 mM CaCl2, 25 mM Tris-HCl pH 7.4 and 15 mM D-glucose. To induce NMDA-mediated […], 50 μM NMDA and 10 μM glycine in CSS solution was applied to the cells for 5 min, then the cells were washed and re-supplemented with minimum essential medium containing 10% horse serum. […]
# Cell Death Assessment: Following exposure of neuronal cultures to the various treatments neuronal survival was quantified and presented as percent of cell death. Percent cell death was determined as the ratio of live-to-dead cells compared with the percent cell death in control wells to account for cell death attributable to mechanical stimulation of the cultures. Quantification of neuronal survival was determined by staining treated cultures with 5 μM Hoechst 33342 and 2 μM propidium iodide (PI) (Invitrogen, Carlsbad, Calif.). […] The numbers of total and dead (PI positive) cells were counted by automated computer assisted software (Axiovision 4.6, Zeiss, Germany). […]
# [1] = Middle cerebral artery occlusion; type: in vivo, mouse
# Experimental: Middle Cerebral Artery Occlusion (MCAD): To occlude the middle cerebral artery, mice were anesthetized with 1.5-2% isoflurane and maintained at normothermic temperature. A 7-0 monofilament with an enlarged silicone tip was passed through the right internal carotid artery to the base of the middle cerebral artery. Occlusion was confirmed by laser-Doppler flowmetry with a probe placed on thinned skull over the lateral parietal cortex. After 60 min of occlusion, the filament was removed and reperfusion was verified. At 24 h of reperfusion, the brain was harvested, sectioned into five coronal slabs, and stained with the vital dye, triphenyltetrazolium chloride. Infarct area was measured on the anterior and posterior surfaces of each slab and integrated to obtain infarct volume with correction for tissue swelling. The investigator performing the surgery and analyzing infarct size was unaware of the genotype of the mouse.
# Neurobehavioural Activity: Spontaneous motor activity was evaluated for 5 min by placing the animals in a mouse cage for 5 minutes. […] Neurological deficits were evaluated by an observer blinded to the treatment and genotype of the animals with a scale of 0-4 (0 no neurological deficit, 4 severe neurological deficit). […] Recordings were evaluated by an observer blinded to the treatment and genotype of the animals. […]
# MCF7 cells [2] = assay: Alkaline comet assay after γ-irradiation; type: cell-based, human; settings: γ-irradiation 2 Gy, 15 min
# Experimental: Comet assay. Single cell gel electrophoresis assay was performed by following the manufacturer's instructions. Briefly, established stable cell lines were irradiated (2 Gy) with a Gammacell irradiator and then further incubated for 15 min at 37° C. Cells were collected at 500×g at 4° C. and rinsed twice with ice cold PBS (Ca++ and Mg++ free). A total of 5×10^5 cells were counted and resuspended into PBS (Ca++ and Mg++ free) and then combined with LMAgarose (low melting agarose) at a ratio 1:10 (v/v). Each sample was spotted into CometSlide™ and lysed with buffer (supplied with CometAssay Kit, Trevigen) for 1 h at 4° C. After draining the excess lysis buffer, slides were immersed with alkaline unwinding solution (200 mM NaOH, pH>13, 1 mM EDTA) for 1 h at RT. To the single cell electrophoresis, each comet slide was placed in electrophoresis slide tray with 1 L of alkaline unwinding solution and applied to 21 Volts for 30 min for electrophoresis. After draining the excess electrophoresis buffer, slides were rinsed twice with dH2O and then fixed with 70% ethanol for 5 min. To facilitate single cell observation, slides were dried at 40° C. and stained with SYBR Green I (supplied with CometAssay Kit) for 5 min at 4° C. […] Fifty cells per slide were monitored and the DNA damage was calculated using comet tail length and head diameter parameters.
# MCF7 cells [3] = assay: MNNG cell death assay in stable MCF7 cell lines; type: cell-based, human; settings: MNNG 500 μM 15 min, 24 hr
# Experimental: Cell death assay. GFP, GFP-Iduna, GFP-Iduna C60A, GFP-Iduna YRAA, shRNA-Iduna and shRNA-Iduna/GFP-Iduna stably transfected cells were treated with 500 μM MNNG for 15 min, and replaced with fresh growth media. After 24 h, the cells were stained with […] Hoechst 33342 (Invitrogen) and […] propidium iodide (PI) (Invitrogen) and counted by automated computer-assisted program (Carl Zeiss). The percentage of cell death was determined as the ratio of live to dead cells compared with the percentage of cell death in control.
molecule,measurement,setting,value
B1,protection against MNNG-induced cell death,cortical neurons,protects neuronal cultures against MNNG-induced cell death
same,reduction of infarct volume,"[1]; Iduna transgenic mice vs wild type, 60 min occlusion",50%
same,neurological function following stroke,[1]; Iduna-Tg mice vs WT,improved neurological function
same,comet head diameter and tail length,MCF7 cells [2],dramatically prevents the reduction in head diameter and increase in tail length
same,MNNG-induced cell death,MCF7 cells [3],dramatically rescues MCF7 cells from MNNG-induced cell death
